Reference: patent US7601489B2, “Manganese ion regulation of reverse transcriptase activity and methods of modulating same” (The Johns Hopkins University, priority 2002, dated 2009)

Substrate: [Mg+2]
Assay: purified protein, by the assay type
Conditions: fit to Hill equation

| Protein | kcat (other: Wt. Ty1 RT) [s⁻¹] | kcat (other: D211N Ty1 RT) [s⁻¹] |
| --- | --- | --- |
| wild-type Ty1 RT (Saccharomyces cerevisiae S288C) (protein) MESQQLSQHSHISHGSACASVTSKEVHTNQDPLDVSASKTEECEKASTKANSQQTTTPASSAVPENPHHASPQPASVPPPQNGPYPQQCMMTQNQANPSGWSFYGHPSMIPYTPYQMSPMYFPPGPQSQFPQYPSSVGTPLSTPSPESGNTFTDSSSADSDMTSTKKYVRPPPMLTSPNDFPNWVKTYIKFLQNSNLGGIIPTVNGKPVRQITDDELTFLYNTFQIFAPSQFLPTWVKDILSVDYTDIMKILSKSIEKMQSDTQEANDIVTLANLQYNGSTPADAFETKVTNIIDRLNNNGIHINNKVACQLIMRGLSGEYKFLRYTRHRHLNMTVAELFLDIHAIYEEQQGSRNSKPNYRRNLSDEKNDSRSYTNTTKPKVIARNPQKTNNSKSKTARAHNVSTSNNSPSTDNDSISKSTTEPIQLNNKHDLHLGQELTESTVNHTNHSDDELPGHLLLDSGASRTLIRSAHHIHSASSNPDINVVDAQKRNIPINAIGDLQFHFQDNTKTSIKVLHTPNIAYDLLSLNELAAVDITACFTKNVLERSDGTVLAPIVQYGDFYWVSKRYLLPSNISVPTINNVHTSESTRKYPYPFIHRMLAHANAQTIRYSLKNNTITYFNESDVDWSSAIDYQCPDCLIGKSTKHRHIKGSRLKYQNSYEPFQYLHTDIFGPVHNLPKSAPSYFISFTDETTKFRWVYPLHDRREDSILDVFTTILAFIKNQFQASVLVIQMDRGSEYTNRTLHKFLEKNGITPCYTTTADSRAHGVAERLNRTLLDDCRTQLQCSGLPNHLWFSAIEFSTIVRNSLASPKSKKSARQHAGLAGLDISTLLPFGQPVIVNDHNPNSKIHPRGIPGYALHPSRNSYGYIIYLPSLKKTVDTTNYVILQGKESRLDQFNYDALTFDEDLNRLTASYQSFIASNEIQESNDLNIESDHDFQSDIELHPEQPRNVLSKAVSPTDSTPPSTHTEDSKRVSKTNIRAPREVDPNISESNILPSKKRSSTPQISNIESTGSGGMHKLNVPLLAPMSQSNTHESSHASKSKDFRHSDSYSENETNHTNVPISSTGGTNNKTVPQISDQETEKRIIHRSPSIDASPPENNSSHNIVPIKTPTTVSEQNTEESIIADLPLPDLPPESPTEFPDPFKELPPINSHQTNSSLGGIGDSNAYTTINSKKRSLEDNETEIKVSRDTWNTKNMRSLEPPRSKKRIHLIAAVKAVKSIKPIRTTLRYDEAITYNKDIKEKEKYIEAYHKEVNQLLKMKTWDTDEYYDRKEIDPKRVINSMFIFNKKRDGTHKARFVARGDIQHPDTYDTGMQSNTVHHYALMTSLSLALDNNYYITQLDISSAYLYADIKEELYIRPPPHLGMNDKLIRLKKSHYGLKQSGANWYETIKSYLIKQCGMEEVRGWSCVFKNSQVTICLFVDDMILFSKDLNANKKIITTLKKQYDTKIINLGESDNEIQYDILGLEIKYQRGKYMKLGMENSLTEKIPKLNVPLNPKGRKLSAPGQPGLYIDQDELEIDEDEYKEKVHEMQKLIGLASYVGYKFRFDLLYYINTLAQHILFPSRQVLDMTYELIQFMWDTRDKQLIWHKNKPTEPDNKLVAISDASYGNQPYYKSQIGNIFLLNGKVIGGKSTKASLTCTSTTEAEIHAISESVPLLNNLSYLIQELNKKPIIKGLLTDSRSTISIIKSTNEEKFRNRFFGTKAMRLRDEVSGNNLYVYYIETKKNIADVMTKPLPIKTFKLLTNKWIH | 0.000447 ± 8.89e-05 |  |
| D211N Ty1 RT (Saccharomyces cerevisiae S288C; D1428N) (protein) AVKAVKSIKPIRTTLRYDEAITYNKDIKEKEKYIEAYHKEVNQLLKMKTWDTDEYYDRKEIDPKRVINSMFIFNKKRDGTHKARFVARGDIQHPDTYDTGMQSNTVHHYALMTSLSLALDNNYYITQLDISSAYLYADIKEELYIRPPPHLGMNDKLIRLKKSHYGLKQSGANWYETIKSYLIKQCGMEEVRGWSCVFKNSQVTICLFVDNMILFSKDLNANKKIITTLKKQYDTKIINLGESDNEIQYDILGLEIKYQRGKYMKLGMENSLTEKIPKLNVPLNPKGRKLSAPGQPGLYIDQDELEIDEDEYKEKVHEMQKLIGLASYVGYKFRFDLLYYINTLAQHILFPSRQVLDMTYELIQFMWDTRDKQLIWHKNKPTEPDNKLVAISDASYGNQPYYKSQIGNIFLLNGKVIGGKSTKASLTCTSTTEAEIHAISESVPLLNNLSYLIQELNKKPIIKGLLTDSRSTISIIKSTNEEKFRNRFFGTKAMRLRDEVSGNNLYVYYIETKKNIADVMTKPLPIKTFKLLTNKWIH |  | 0.000444 ± 7.78e-05 |
